Key:
[1] = molecular target: Coagulation Factor VII (plasma) (Homo sapiens, UniProt P08709 P08709:61-466); assay: affinity chromatography; Ca/Mg buffer, EDTA elution; conditions: tags: plasma FVII (98-99% pure; ACSET, LFB, in column tests); label: biotin
Method: The FVII is eluted with a 20 mM Tris-HCl+10 mM EDTA buffer at pH 7.5. The elution peak is collected according to the OD profile.
In FIG. 15, the injection (1) of human plasma […] concentrate is followed rapidly by the elimination peak (2) of the fraction not retained on the affinity support. The affinity support continues to saturate with the coagulation protein of interest: complexes between (i) the anti-GLA nucleic aptamers of the affinity support and (ii) the human plasma FVII molecules initially contained in the composition to be purified were formed. After running the composition to be purified, a step of washing the column with the previously specified washing buffer is carried out. Then, the elution step is carried out by injecting the elution buffer solution comprising a final concentration of 10 mM of EDTA.

[2] = molecular target: T1, Coagulation Factor IX (recombinant) (Homo sapiens, UniProt P00740 P00740:47-461); assay: SPR; FIX immobilized; 50 mM Tris, 10 mM CaCl2, 4 mM MgCl2, pH 7.5; conditions: tags: BeneFIX (nonacog alfa, Wyeth); correctly gamma-carboxylated
T1 sequence (P00740 47-461, one chain of several): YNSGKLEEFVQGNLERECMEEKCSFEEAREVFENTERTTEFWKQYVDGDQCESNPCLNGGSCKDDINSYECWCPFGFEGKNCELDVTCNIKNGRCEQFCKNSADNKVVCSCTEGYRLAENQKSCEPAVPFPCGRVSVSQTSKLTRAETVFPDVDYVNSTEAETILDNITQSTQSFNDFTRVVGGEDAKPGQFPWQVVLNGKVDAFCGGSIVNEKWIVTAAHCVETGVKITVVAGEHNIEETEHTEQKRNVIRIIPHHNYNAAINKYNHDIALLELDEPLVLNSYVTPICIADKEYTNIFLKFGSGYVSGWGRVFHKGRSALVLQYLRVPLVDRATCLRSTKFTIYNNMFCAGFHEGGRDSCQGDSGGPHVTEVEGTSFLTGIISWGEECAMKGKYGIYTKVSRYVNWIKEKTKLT
Method: (§1) Each sample was injected sequentially onto the same chip (solid support) containing the immobilized human recombinant FIX. Controls are obtained by injecting blanks containing only run buffer. All the injections were carried out with a flow rate of 30 μl/min for 60 sec; after the injection, run buffer was injected onto the chip at an identical flow rate for 120 sec.
(§2) Elution buffer (10 mM EDTA) was then injected for 60 sec with a flow rate of 30 μl/min to uncouple the aptamer from the immobilized human FIX.
(§3) The chip makes it possible to observe in real time the formation and the disruption of interactions between the immobilized human recombinant FIX and each of the aptamers, having the sequences SEQ ID Nos. 3 and 6 to 35, tested, through surface plasmon resonance (SPR). Binding to the immobilized recombinant human FIX generates an increase in signal expressed in resonance units (RU) recorded by the apparatus (FIG. 6). These analyses are carried out with the Biacore T100 SPR apparatus (GE). The modeling of the recorded interactions is carried out by means of the Biaevaluation software (GE).

[3] = molecular target: T1, Coagulation Factor IX (recombinant); assay: SPR; highest affinity of the 30 core aptamers; FIX immobilized; 50 mM Tris, 10 mM CaCl2, 4 mM MgCl2, pH 7.5; conditions: tags: BeneFIX (nonacog alfa, Wyeth); correctly gamma-carboxylated
Method: as §1, §2, §3

Coagulation Factor VII (plasma), sequence (P08709 61-466, one chain of several): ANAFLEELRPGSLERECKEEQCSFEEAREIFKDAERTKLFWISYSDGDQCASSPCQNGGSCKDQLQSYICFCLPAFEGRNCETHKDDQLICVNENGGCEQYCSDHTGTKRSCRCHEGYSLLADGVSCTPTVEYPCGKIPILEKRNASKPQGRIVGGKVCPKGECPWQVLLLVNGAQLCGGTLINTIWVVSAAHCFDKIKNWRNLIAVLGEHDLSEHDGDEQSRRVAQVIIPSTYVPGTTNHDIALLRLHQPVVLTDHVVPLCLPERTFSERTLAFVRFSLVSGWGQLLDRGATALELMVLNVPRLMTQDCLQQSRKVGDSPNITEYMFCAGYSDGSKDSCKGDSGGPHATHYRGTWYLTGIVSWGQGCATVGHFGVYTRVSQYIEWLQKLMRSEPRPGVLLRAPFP

Binder: CCGCACACCACGCGCATGACCCCGCGCACACGACTTGAAGTAGC (ssDNA) [Mapt-2-CS]
- binding result [1]: binds

Binder: CGCACATGACTTGAAGTTAAACGCGAATTACAAACCCAGCCCCC (ssDNA) [Mapt-1 core sequence (Mapt-1-CS)]
- binding result [2]: binds

Binder: CGCACATGACTTGAAGTAAAACGCGAATTACAGACCAAACCCG (ssDNA) [Mapt-1.2-CS]
- binding result [3]: binds

— patent US20120271039, “METHOD FOR PURIFYING ACTIVE GLA-DOMAIN COAGULATION PROTEINS” (LFB BIOTECHNOLOGIES, published 2012)
